Values of other authors as cited in PMC11548882.

Target: EGFR (Homo sapiens) (UniProt P00533)

EGF (from UniProt P01133)
Kd: 4 nM
